Results published in patent US10611814 (GEMOAB MONOCLONALS, dated 2020).

Legend:
Test in all cases: cell-based or functional assay
[1] = target: T1, prostate stem cell antigen (UniProt O43653 12-83, limits assumed)
T1 sequence (looked up): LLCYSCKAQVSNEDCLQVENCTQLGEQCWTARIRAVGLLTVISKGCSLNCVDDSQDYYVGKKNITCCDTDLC

[2] = target: CD123 antigen (UniProt P26951 19-378, limits assumed)
[3] = target: prostate membrane antigen (UniProt Q04609 1-750, limits assumed)
[4] = target: CD33 antigen (UniProt P20138 18-364, limits assumed)
Chain of CD33 antigen (P20138 18-364 limits assumed): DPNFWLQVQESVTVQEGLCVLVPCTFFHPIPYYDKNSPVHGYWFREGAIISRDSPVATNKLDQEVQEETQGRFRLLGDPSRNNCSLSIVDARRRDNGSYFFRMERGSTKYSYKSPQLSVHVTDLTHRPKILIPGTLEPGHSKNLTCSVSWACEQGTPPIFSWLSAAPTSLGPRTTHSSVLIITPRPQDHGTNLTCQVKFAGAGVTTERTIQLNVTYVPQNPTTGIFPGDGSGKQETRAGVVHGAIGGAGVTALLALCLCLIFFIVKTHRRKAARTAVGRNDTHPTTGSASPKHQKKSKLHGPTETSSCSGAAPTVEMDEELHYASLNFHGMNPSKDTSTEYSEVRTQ

Chain of CD123 antigen (P26951 19-378 limits assumed): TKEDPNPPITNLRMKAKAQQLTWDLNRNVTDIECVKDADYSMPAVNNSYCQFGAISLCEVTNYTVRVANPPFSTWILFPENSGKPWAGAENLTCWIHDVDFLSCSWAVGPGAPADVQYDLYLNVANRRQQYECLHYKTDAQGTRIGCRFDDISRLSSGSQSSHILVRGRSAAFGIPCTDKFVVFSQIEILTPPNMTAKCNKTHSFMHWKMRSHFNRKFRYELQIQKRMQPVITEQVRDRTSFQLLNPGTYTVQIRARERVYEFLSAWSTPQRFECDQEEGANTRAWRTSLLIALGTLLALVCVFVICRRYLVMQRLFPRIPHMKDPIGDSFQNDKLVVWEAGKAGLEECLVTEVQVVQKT
Chain of prostate membrane antigen (Q04609 whole entry): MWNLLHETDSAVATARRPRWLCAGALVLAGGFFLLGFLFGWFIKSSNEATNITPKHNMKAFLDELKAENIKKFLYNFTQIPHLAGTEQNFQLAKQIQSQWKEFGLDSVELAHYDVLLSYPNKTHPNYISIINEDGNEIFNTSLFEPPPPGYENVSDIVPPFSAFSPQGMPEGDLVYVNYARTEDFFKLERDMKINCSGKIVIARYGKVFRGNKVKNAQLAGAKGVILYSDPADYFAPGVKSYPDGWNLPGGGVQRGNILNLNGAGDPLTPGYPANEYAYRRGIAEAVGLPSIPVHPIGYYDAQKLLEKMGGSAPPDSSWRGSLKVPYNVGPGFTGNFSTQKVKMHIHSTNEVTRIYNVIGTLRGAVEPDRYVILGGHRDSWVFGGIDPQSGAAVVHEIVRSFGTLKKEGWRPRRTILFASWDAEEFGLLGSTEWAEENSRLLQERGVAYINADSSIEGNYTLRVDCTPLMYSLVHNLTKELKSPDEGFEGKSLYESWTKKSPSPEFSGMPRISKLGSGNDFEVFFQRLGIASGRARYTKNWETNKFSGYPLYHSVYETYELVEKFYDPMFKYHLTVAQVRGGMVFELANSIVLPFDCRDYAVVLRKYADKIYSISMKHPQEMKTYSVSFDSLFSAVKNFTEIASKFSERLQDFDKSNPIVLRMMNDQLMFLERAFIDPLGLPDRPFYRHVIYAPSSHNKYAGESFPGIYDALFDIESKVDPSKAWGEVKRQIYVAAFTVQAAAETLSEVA

B1: target module specific for PSCA (scFv)
scFv: DAAQPAGSDIQMTQSPSSLSASVGDRVTITCGTSQDINNYLNWYQQKPGKVPKLLIYYTSRLHSGVPSRFSGSGSGTDFTLTISSLQPEDVATYYCQQSKTLPWTFGGGTQLTVLGGGGSGGGGSGASAAGGGGSGGGGSQVQLVESGGGLVKPGGSLRLSCAASGFTFSSYSMSWIRQAPGKGLEWVSYINDSGGSTFYPDTVKGRFTISRDNAKNSLYLQMNSLRAEDTAVYYCARRMYYGNSHWHFDVWGQGTTVTVSSGGGGSAAAKPLPEVTDEYARGGPEQKLISEEDLNSAVDHHHHHH
B1 was tested, and the “Half maximal effective dosis (EC50), 51Cr-release lysis of PC3 cells expressing PSCA by UniCAR T cells, e:t 5:1” value [1] was roughly 12 pmol.

B2: target module specific for CD123 (scFv)
scFv: DAAQPAEVQLQQSGPELVKPGASVKMSCKASGYTFTDYYMKWVKQSHGKSLEWIGDIIPSNGATFYNQKFKGKATLTVDRSSSTAYMHLNSLTSEDSAVYYCTRSHLLRASWFAYWGQGTLVTVSAASGGGGSGGGGSGGGGSDFVMTQSPSSLTVTAGEKVTMSCKSSQSLLNSGNQKNYLTWYLQKPGQPPKLLIYWASTRESGVPDRFTGSGSGTDFTLTISSVQAEDLAVYYCQNDYSYPYTFGGGTKLEIKGGGGSAAAKPLPEVTDEYARGGPEQKLISEEDLNSAVDHHHHHH
B2 was tested, and the “EC50, 51Cr-release lysis of MOLM-13 by UniCAR T cells, e:t 1:1, 24 h; combination of αCD33 TM + αCD123 TM” value [2] was 70.2 pmol, the “EC50, 51Cr-release lysis of OCI-AML3 by UniCAR T cells, e:t 1:1, 24 h; combination of αCD33 TM + αCD123 TM” value [2] was 80.2 pmol and the “EC50, lysis of MOLM-13 by UniCAR T cells, e:t 1:1” value [2] was 45 pmol.

B3: target module specific for PSMA (scFv)
scFv: DAAQPAEVQLQQSGPELVKPGTSVRISCKTSGYTFTEYTIHWVKQSHGKSLEWIGNINPNNGGTTYNQKFEDKATLTVDKSSSTAYMELRSLTSEDSAVYYCAAGWNFDYWGQGTTVTVSSGGGGSGGGGSGGGGSDIVMTQSHKFMSTSVGDRVSIICKASQDVGTAVDWYQQKPGQSPKLLIYWASTRHTGVPDRFTGSGSGTDFTLTITNVQSEDLADYFCQQYNSYPLTFGAGTMLDLKAAAKPLPEVTDEYARGGPEQKLISEEDLNSAVDHHHHHH
B3 was tested, and the “Half maximal effective dosis (EC50), 51Cr-release lysis of PC3 cells expressing PSMA by UniCAR T cells, e:t 5:1” value [3] was roughly 12 pmol.

B4: target module specific for CD33 (scFv)
scFv: DAAQPAGSDIVLTQSPASLAVSPGQRATITCTASSSVNYIHWYQQKPGQPPKLLIYDTSKVASGVPARFSGSGSGTDFTLTINPVEANDTANYYCQQWRSYPLTFGQGTKLEIKGGGGSGGGGSGASGAGGGGSGGGGSQVQLVQSGAEVKKPGASVKVSCKASGYTFTDYVVHWVRQAPGQGLEWMGYINPYNDGTKYNEKFKGRVTMTRDTSISTAYMELSRLRSDDTAVYYCARDYRYEVYGMDYWGQGTLVTVSSGGGGSAAAKPLPEVTDEYARGGPEQKLISEEDLNSAVDHHHHHH
B4 was tested, and the “EC50, 51Cr-release lysis of MOLM-13 by UniCAR T cells, e:t 1:1, 24 h; combination of αCD33 TM + αCD123 TM” value [4] was 70.2 pmol, the “EC50, 51Cr-release lysis of OCI-AML3 by UniCAR T cells, e:t 1:1, 24 h; combination of αCD33 TM + αCD123 TM” value [4] was 80.2 pmol and the “EC50, lysis of MOLM-13 by UniCAR T cells, e:t 1:1” value [4] was 137 pmol.

B5: bi-specific CD33-CD123 target module (bispecific antibody)
chain: DAAQPAEVQLQQSGPELVKPGASVKMSCKASGYTFTDYYMKWVKQSHGKSLEWIGDIIPSNGATFYNQKFKGKATLTVDRSSSTAYMHLNSLTSEDSAVYYCTRSHLLRASWFAYWGQGTLVTVSAASGGGGSGGGGSGGGGSDFVMTQSPSSLTVTAGEKVTMSCKSSQSLLNSGNQKNYLTWYLQKPGQPPKLLIYWASTRESGVPDRFTGSGSGTDFTLTISSVQAEDLAVYYCQNDYSYPYTFGGGTKLEIKAAAKPLPEVTDEYARGQVQLVQSGAEVKKPGASVKVSCKASGYTFTDYVVHWVRQAPGQGLEWMGYINPYNDGTKYNEKFKGRVTMTRDTSISTAYMELSRLRSDDTAVYYCARDYRYEVYGMDYWGQGTLVTVSSGGGGSGGGGSGGGGSDIVLTQSPASLAVSPGQRATITCTASSSVNYIHWYQQKPGQPPKLLIYDTSKVASGVPARFSGSGSGTDFTLTINPVEANDTANYYCQQWRSYPLTFGQGTKLEIKGPEQKLISEEDLNSAVDHHHHHH
With B5 the “EC50, 51Cr-release lysis of MOLM-13 by UniCAR T cells, e:t 1:1, 24 h; bispecific TM” value [2] was 2.9 pmol, the “EC50, 51Cr-release lysis of OCI-AML3 by UniCAR T cells, e:t 1:1, 24 h; bispecific TM” value [2] was 11.7 pmol and the “EC50, 51Cr-release lysis of MOLM-13 by UniCAR T cells, e:t 1:1, 24 h; bispecific TM” value [4] was 2.9 pmol. The “EC50, 51Cr-release lysis of OCI-AML3 by UniCAR T cells, e:t 1:1, 24 h; bispecific TM” value [4] was 11.7 pmol.
